# Test results taken from publication PMC9661471 (Journal of Medicinal Chemistry, 2022).
# *1 amine or outer side, *2 acyl side, *3 side chain or, on linkers, in order; H or OH if unused. Bridges are numbered along the chain shown (N, C = ends). TATA = O=C(CC[*:1])N1CN(C(=O)CC[*:2])CN(C(=O)CC[*:3])C1
# T1: human Nectin-4 ECD (human, UniProt Q96NY8 32-349)
# T1 sequence (looked up): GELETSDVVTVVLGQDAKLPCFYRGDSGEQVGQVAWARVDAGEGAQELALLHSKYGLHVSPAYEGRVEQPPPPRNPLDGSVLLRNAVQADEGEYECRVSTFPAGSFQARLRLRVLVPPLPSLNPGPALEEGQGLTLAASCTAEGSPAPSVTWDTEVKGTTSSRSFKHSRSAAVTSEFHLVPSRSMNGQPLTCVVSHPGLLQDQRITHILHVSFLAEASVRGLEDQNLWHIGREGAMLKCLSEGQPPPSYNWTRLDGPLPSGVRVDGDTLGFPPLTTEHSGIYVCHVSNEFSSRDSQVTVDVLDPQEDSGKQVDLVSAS
# B1: Bicycle 8 (peptide)
# peptide: Ac-CPFGCMKNWSWPIWCTNK-NH2
# modifications: linker 1-5-15 via TATA
# B2: Bicycle 10 (peptide)
# peptide: Ac-CPFGCMKNWSWPIWC-NH2
# modifications: linker 1-5-15 via TATA
# SMILES: CC[C@H](C)[C@@H]1NC(=O)[C@@H]2CCCN2C(=O)[C@H](Cc2c[nH]c3ccccc23)NC(=O)[C@H](CO)NC(=O)[C@H](Cc2c[nH]c3ccccc23)NC(=O)[C@H](CC(N)=O)NC(=O)[C@H](CCCCN)NC(=O)[C@H](CCSC)NC(=O)[C@@H]2CSCCC(=O)N3CN(CN(C3)C(=O)CCSC[C@H](NC(C)=O)C(=O)N3CCC[C@H]3C(=O)N[C@@H](Cc3ccccc3)C(=O)NCC(=O)N2)C(=O)CCSC[C@@H](C(N)=O)NC(=O)[C@H](Cc2c[nH]c3ccccc23)NC1=O
# Columns and labels:
# [1] = molecular target: human Nectin-4 ECD (human) (UniProt Q96NY8); test: SPR
# human Nectin-4 ECD = molecular target: T1, human Nectin-4 ECD; test: fluorescence polarisation
Molecule,Kd [1],Ki (human Nectin-4 ECD)
Bicycle Toxin Conjugate BT8009 (peptide),2.5 nM,–
B1,–,13.5 nM
B2,–,17.6 nM
